We go through 5 substances from publication PMC10527606.

Experiment [1] deals with humanized 5c8 (hu5c8) (human (humanized antibody)). Kind of experiment: SPR.
Experiment [2] concerns the target TNX-1500 (human). Description: SPR.

With “FcγRIIIaF (from UniProt P08637 17-208) (receptor)”, the dissociation constant (Kd) in experiment [1] amounted to 1700 nM.
On the same count and under the same terms, as for “FcγRIIIaV (from UniProt P08637 17-208) (receptor)”, the figure is 330 nM.
Consider “FcγRIIaH (from UniProt P12318 34-217) (receptor)”, for which the results for the Kd in experiment [2] and in experiment [1] were 7100 nM and 510 nM, respectively.
For “FcγRIIbF (from UniProt P31994 43-217) (receptor)”, the dissociation constant Kd in experiment [1] came out at 970 nM.
On to “FcγRIa (from UniProt P12314 16-292) (receptor)”, for which the values for the equilibrium dissociation constant (Kd) in experiment [2] and in experiment [1] were 8.7 nM and 0.033 nM, respectively.
